Our source for the Km, kcat and kcat/Km values is PMC10449523, “A polysaccharide utilization locus from Chitinophaga pinensis simultaneously targets chitin and β-glucans found in fungal cell walls” (mSphere, 2023).

What all share (test): fluorescent release of 4-methylumbelliferone (chitinase assay kit CS1030)
Assay type in all cases: biochemical, Chitinophaga pinensis
Settings in all cases: kit manufacturer's conditions

Substrate in data set [1]: CC(=O)N[C@H]1[C@H](Oc2ccc3c(C)cc(=O)oc3c2)O[C@H](CO)[C@@H](O[C@@H]2O[C@H](CO)[C@@H](O[C@@H]3O[C@H](CO)[C@@H](O)[C@H](O)[C@H]3NC(C)=O)[C@H](O)[C@H]2NC(C)=O)[C@@H]1O
The source says:
fluorescent release of 4-methylumbelliferone (chitinase assay kit CS1030) on CpChiB

Substrate in data set [2]: CC(=O)N[C@H]1[C@H](Oc2ccc3c(C)cc(=O)oc3c2)O[C@H](CO)[C@@H](O[C@@H]2O[C@H](CO)[C@@H](O[C@@H]3O[C@H](CO)[C@@H](O)[C@H](O)[C@H]3NC(C)=O)[C@H](O)[C@H]2NC(C)=O)[C@@H]1O
An excerpt:
fluorescent release of 4-methylumbelliferone (chitinase assay kit CS1030) on […]
The source holds these as a separate data set.

Substrate in data set [3]: CC(=O)N[C@H]1[C@H](Oc2ccc3c(C)cc(=O)oc3c2)O[C@H](CO)[C@@H](O[C@@H]2O[C@H](CO)[C@@H](O[C@@H]3O[C@H](CO)[C@@H](O)[C@H](O)[C@H]3NC(C)=O)[C@H](O)[C@H]2NC(C)=O)[C@@H]1O
An excerpt: fluorescent release of 4-methylumbelliferone (chitinase assay kit CS1030) on CpChiB-CBM6
This is another data set of the same source.

Substrate in data set [4]: CC(=O)N[C@H]1[C@H](Oc2ccc3c(C)cc(=O)oc3c2)O[C@H](CO)[C@@H](O[C@@H]2O[C@H](CO)[C@@H](O[C@@H]3O[C@H](CO)[C@@H](O)[C@H](O)[C@H]3NC(C)=O)[C@H](O)[C@H]2NC(C)=O)[C@@H]1O
An excerpt:
fluorescent release of 4-methylumbelliferone (chitinase assay kit CS1030) on CpChiAC-CBM5
This is another data set of the same source.

B1: CpChiB (Chitinophaga pinensis DSM 2588) (protein)
chain: QFKVVGYMPSWSGSVSAIQYSKLTHINYAFALPTSTGGLQPIENPSKLSSLVSSGHANGVKVLIAIGGWNNGDDGAFESLAANATYRTNFVNNVMNFVNQYGLDGVDMDWEYPDAGASANNYLALMQQLSTALHNNGKLLTAAVVGTGGASILNGVFNVVDFLNLMAYDYNNYEHSTYTYASQSLSYWVGRGLPASKAILGVPFYARPSWNSYATLLANGANPNSDYFGSDYYNGLPTIRSKTNLAFDQGGGIMMWELSQDATGANSLLSAIYQVKLDR
notes: C-terminal His6 tag (pET21a), E. coli BL21(DE3)
By Km is commonly meant the substrate concentration at which the rate is half of its maximum. A word on the kcat: it is the number of substrate molecules converted per active site and unit of time at saturation. As usually defined, the kcat/Km is the second-order rate constant that governs catalysis at low substrate concentration. As to B1, in data set [1], the Km came out at 240 ± 10 µM, the kcat amounted to 2.199 ± 0.148 s⁻¹ and the kcat/Km was 8850 M⁻¹ s⁻¹.

B2: CpChiAC (Chitinophaga pinensis DSM 2588) (protein)
chain: KVVVGYWQNWNLASAPYIRLRDVDSRYNVIEVAFGTTSSDLSTVNFTPEGTTVADFKADIATLQAQGRKVLLSLGGETGTLVINTEANKQAFISSMKNLLDSYNFDGFDLDIEGGTSLQLNNGDNNFMAPTTPKVVNLIAAAKEIISYRKAQGKNCLLTMAPETYYVQTAYGATYSPLVGAYLPIIYGLRNELSWIQPQLYNTGSVMGLDNKVYNSTTADFIVSMTEMLLQGFPVSGTSQTFPALREDQVAFGLPAAPGAAGSGYTAPAEVKKALNYLTKGQSYGGTYVIRKAAGYPGLRGIMTWSVNWDKVNNSEFAANYYPYFFGT
notes: as for B1
Take B2: in data set [2], the Km was determined as 220 ± 3 µM, the kcat amounted to 2.6587 ± 0.035 s⁻¹ and the kcat/Km is 11800 M⁻¹ s⁻¹.

B3: CpChiB-CBM6 (Chitinophaga pinensis DSM 2588) (protein)
chain: QFKVVGYMPSWSGSVSAIQYSKLTHINYAFALPTSTGGLQPIENPSKLSSLVSSGHANGVKVLIAIGGWNNGDDGAFESLAANATYRTNFVNNVMNFVNQYGLDGVDMDWEYPDAGASANNYLALMQQLSTALHNNGKLLTAAVVGTGGASILNGVFNVVDFLNLMAYDYNNYEHSTYTYASQSLSYWVGRGLPASKAILGVPFYARPSWNSYATLLANGANPNSDYFGSDYYNGLPTIRSKTNLAFDQGGGIMMWELSQDATGANSLLSAIYQVKLDRTGTNPPTGSTLIQAENYTSMSGVQVEATTDAGGGSNVGYIETGDWLAYANINFPTSGAYKVEYRVASQSTGGQLSLDLNSGAIVLGYLNVPVTGGWQTWTTISHNVNVTAGTYSLGVYAQSGGWNINWIRITKVAS
notes: as for B1
Regarding B3, in data set [3], the Km worked out at 120 ± 3 µM, the kcat was 1.005 ± 0.0533 s⁻¹ and the kcat/Km came out at 8150 M⁻¹ s⁻¹.

B4: CpChiAC-CBM5 (Chitinophaga pinensis DSM 2588) (protein)
chain: KVVVGYWQNWNLASAPYIRLRDVDSRYNVIEVAFGTTSSDLSTVNFTPEGTTVADFKADIATLQAQGRKVLLSLGGETGTLVINTEANKQAFISSMKNLLDSYNFDGFDLDIEGGTSLQLNNGDNNFMAPTTPKVVNLIAAAKEIISYRKAQGKNCLLTMAPETYYVQTAYGATYSPLVGAYLPIIYGLRNELSWIQPQLYNTGSVMGLDNKVYNSTTADFIVSMTEMLLQGFPVSGTSQTFPALREDQVAFGLPAAPGAAGSGYTAPAEVKKALNYLTKGQSYGGTYVIRKAAGYPGLRGIMTWSVNWDKVNNSEFAANYYPYFFGTTPGNQSPVVSITSPASGASFTAPASITITASASDADGSIAKVEFYNGATKLGQATAAPYSYTWTNVAAATYSLTAVATDNAGAVTTSAAVSVTVNGTGGNTCDGIAAWSATIAYNGSQQVVYNGKIYTAKWWTQGDQPDTHSGADQVWAYVRDCGGSNPGNQAPTVSITSPSAGASFSAPATVTIQATAADADGTIAKVEFYNGNTKLGEVTASPYSYTWGNVAAGAYSITAVATDNGSKSTTSAAVAIQVGSGNTGNCAGVAAYEPFPKVYNQGDKVVYNGVLYESQSNGLYNVTPGTADWWWKPLGACGAAARVAVVSPEPDGVNADSKLVVFPNPLTGTVLKVQINAAQGEKVLIELWSTNGNAILRKQIVAGAKGQQTVDLDVSQVPAGSWILKTSNQQSGRKSAAKVIRL
notes: as for B1
For B4, in data set [4], the Km worked out at 290 ± 0.2 µM, the kcat stood at 3.0285 ± 0.0383 s⁻¹ and the kcat/Km came out at 10600 M⁻¹ s⁻¹.
